The results in this text go back to patent US20090031441A1 (NATIONAL UNIVERSITY CORPORATION NAGOYA UNIVERSITY, published 2009).

This assay has as its target T1, GAI (Arabidopsis DELLA protein), yeast two-hybrid prey in pGADT7 AD vector (Arabidopsis, UniProt Q9LQT8 1-533).
T1 construct: also called AtDELLA
T1 sequence (looked up): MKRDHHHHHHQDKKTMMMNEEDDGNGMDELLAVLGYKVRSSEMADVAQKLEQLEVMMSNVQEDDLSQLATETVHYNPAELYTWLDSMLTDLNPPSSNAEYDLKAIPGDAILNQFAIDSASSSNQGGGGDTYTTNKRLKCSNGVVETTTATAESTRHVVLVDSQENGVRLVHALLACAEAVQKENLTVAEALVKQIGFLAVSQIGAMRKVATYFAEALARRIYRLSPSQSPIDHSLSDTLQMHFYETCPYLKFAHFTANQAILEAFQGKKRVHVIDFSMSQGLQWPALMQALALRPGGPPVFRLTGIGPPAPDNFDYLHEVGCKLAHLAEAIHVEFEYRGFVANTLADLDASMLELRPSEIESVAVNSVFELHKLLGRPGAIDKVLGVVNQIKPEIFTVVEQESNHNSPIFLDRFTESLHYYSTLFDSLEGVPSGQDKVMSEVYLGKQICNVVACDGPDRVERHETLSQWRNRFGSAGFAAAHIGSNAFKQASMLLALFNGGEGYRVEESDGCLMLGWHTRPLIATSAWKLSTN
Put plainly: yeast two-hybrid without GA (FIG. 11); member GAI named in the legend of FIG. 11. Here is the method: Arabidopsis has five DELLA proteins (RGA, GAI, RGL1, RGL2, and RGL3; collectively designated AtDELLA; Fleet, C. M., and Sun, T.-P. (2005) Curr. Opin. Plant Biol., 8, 77-85; Dill, A., and Sun, T. (2001) Genetics, 159, 777-785); therefore, there are 15 possible combinations of GID1/DELLA proteins. To verify the positive interactions between AtGID1-AtDELLA, two experiments were conducted using the yeast two hybrid (Y2H) system. In the first experiment (Assay A), a viable colony assay using a defined medium in which only positive clones would survive was carried out. In the second experiment (Assay B), β-galactosidase activity was measured, as reporter gene product of AtGID1-AtDELLA interactions.
BD Matchmaker Two-hybrid System 3 (Clontech, Palo Alto, Calif., USA; now part of Takara Bio) was used in the Y2H experiments. After confirming the PCR products of the AtGID1 genes by sequencing, PCR products were cloned into pGBKT7 DNA-BD shuttle vector to construct bait plasmids. […]
Thus, GA₄ (10⁻⁵ M) was used and added to the medium. […] As described above, all AtGID1-AtDELLA interactions were detected in a GA-dependent manner; however, interactions between AtGID1b and some AtDELLAs were detected, albeit weakly, in the absence of GA (FIG. 11).

B1: AtGID1b (At3g63010), yeast two-hybrid bait in pGBKT7 DNA-BD vector (receptor, not shown: small tags and cut ends)
chain: MAGGNEVNLNECKRIVPLNTWVLISNFKLAYKVLRRPDGSFNRDLAEFLDRKVPANSFPLDGVFSFDHVDSTTNLLTRIYQPASLLHQTRHGTLELTKPLSTTEIVPVLIFFHGGSFTHSSANSAIYDTFCRRLVTICGVVVVSVDYRRSPEHRYPCAYDDGWNALNWVKSRVWLQSGKDSNVYVYLAGDSSGGNIAHNVAVRATNEGVKVLGNILLHPMFGGQERTQSEKTLDGKYFVTIQDRDWYWRAYLPEGEDRDHPACNPFGPRGQSLKGVNFPKSLVVVAGLDLVQDWQLAYVDGLKKTGLEVNLLYLKQATIGFYFLPNNDHFHCLMEELNKFVHSIEDSQSKSSPVLLTP
notes: Bait fusion for the Y2H assays; also called Arabidopsis GID1
Turning to B1, the binding result is “binds”.
